According to the supplement of paper PMC5998384:

Assays:
HeLa Kyoto [1] = assay: melting temperature (median over replicates), in situ; higher = more thermally stable
HeLa Kyoto [2] = assay: solubility change mitosis vs G1/S (difference of NP-40 vs SDS log2 ratios) (log2 ratio difference); higher = more soluble in mitosis
HeLa Kyoto [3] = assay: solubility in G1/S (NP-40 vs SDS abundance) (log2 ratio); higher = more soluble; conditions: cell cycle stage: G1/S
HeLa Kyoto [4] = assay: thermal stability score vs G1/S (z-score of summed log2 fold changes over temperatures); higher = more thermally stable than in G1/S
[5] = cell cycle stage: early G1 (4.5 h after nocodazole release)
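Wherever melting temperature (median over replicates), in situ is given: HeLa Kyoto cells synchronized by double thymidine or nocodazole block, proteins quantified by TMT10plex mass spectrometry, three independent biological replicates.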
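Wherever solubility change mitosis vs G1/S (difference of NP-40 vs SDS log2 ratios) is given: synchronized HeLa Kyoto cells (double thymidine block for G1/S, nocodazole release for mitosis), protein amounts in NP-40 versus SDS lysates quantified by mass spectrometry, three biological replicates.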
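Wherever solubility in G1/S (NP-40 vs SDS abundance) is given: HeLa Kyoto cells arrested at G1/S by double thymidine block, proteins quantified by TMT10plex mass spectrometry in mild NP-40 versus SDS extracts, three biological replicates.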
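Wherever thermal stability score vs G1/S (z-score of summed log2 fold changes over temperatures) is given: synchronized HeLa Kyoto cells, proteins quantified by TMT10plex mass spectrometry, three biological replicates, mitosis taken 0.5 h after nocodazole release, G1/S directly after double thymidine block.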

Sequence | melting temperature (HeLa Kyoto [1]; cell cycle stage: G1/S) [°C] | melting temperature (HeLa Kyoto [1]; cell cycle stage: mitosis) [°C] | solubility change mitosis (log2) (HeLa Kyoto [2]) | solubility in G1/S (log2) (HeLa Kyoto [3]) | thermal stability score (HeLa Kyoto [4]; [5]) | thermal stability score (HeLa Kyoto [4]; cell cycle stage: mitosis)
MSRIEKMSILGVRSFGIEDKDKQIITFFSPLTILVGPNGAGKTTIIECLKYICTGDFPPGTKGNTFVHDPKVAQETDVRAQIRLQFRDVNGELIAVQRSMVCTQKSKKTEFKTLEGVITRTKHGEKVSLSSKCAEIDREMISSLGVSKAVLNNVIFCHQEDSNWPLSEGKALKQKFDEIFSATRYIKALETLRQVRQTQGQKVKEYQMELKYLKQYKEKACEIRDQITSKEAQLTSSKEIVKSYENELDPLKNRLKEIEHNLSKIMKLDNEIKALDSRKKQMEKDNSELEEKMEKVFQGTDEQLNDLYHNHQRTVREKERKLVDCHRELEKLNKESRLLNQEKSELLVEQGRLQLQADRHQEHIRARDSLIQSLATQLELDGFERGPFSERQIKNFHKLVRERQEGEAKTANQLMNDFAEKETLKQKQIDEIRDKKTGLGRIIELKSEILSKKQNELKNVKYELQQLEGSSDRILELDQELIKAERELSKAEKNSNVETLKMEVISLQNEKADLDRTLRKLDQEMEQLNHHTTTRTQMEMLTKDKADKDEQIRKIKSRHSDELTSLLGYFPNKKQLEDWLHSKSKEINQTRDRLAKLNKELASSEQNKNHINNELKRKEEQLSSYEDKLFDVCGSQDFESDLDRLKEEIEKSSKQRAMLAGATAVYSQFITQLTDENQSCCPVCQRVFQTEAELQEVISDLQSKLRLAPDKLKSTESELKKKEKRRDEMLGLVPMRQSIIDLKEKEIPELRNKLQNVNRDIQRLKNDIEEQETLLGTIMPEEESAKVCLTDVTIMERFQMELKDVERKIAQQAAKLQGIDLDRTVQQVNQEKQEKQHKLDTVSSKIELNRKLIQDQQEQIQHLKSTTNELKSEKLQISTNLQRRQQLEEQTVELSTEVQSLYREIKDAKEQVSPLETTLEKFQQEKEELINKKNTSNKIAQDKLNDIKEKVKNIHGYMKDIENYIQDGKDDYKKQKETELNKVIAQLSECEKHKEKINEDMRLMRQDIDTQKIQERWLQDNLTLRKRNEELKEVEEERKQHLKEMGQMQVLQMKSEHQKLEENIDNIKRNHNLALGRQKGYEEEIIHFKKELREPQFRDAEEKYREMMIVMRTTELVNKDLDIYYKTLDQAIMKFHSMKMEEINKIIRDLWRSTYRGQDIEYIEIRSDADENVSASDKRRNYNYRVVMLKGDTALDMRGRCSAGQKVLASLIIRLALAETFCLNCGIIALDEPTTNLDRENIESLAHALVEIIKSRSQQRNFQLLVITHDEDFVELLGRSEYVEKFYRIKKNIDQCSEIVKCSVSSLGFNVH [RAD50] | 48.8 | 49.7 | -0.108 | -0.129 | 2.17 | 3.45
MSEREERRFVEIPRESVRLMAESTGLELSDEVAALLAEDVCYRLREATQNSSQFMKHTKRRKLTVEDFNRALRWSSVEAVCGYGSQEALPMRPAREGELYFPEDREVNLVELALATNIPKGCAETAVRVHVSYLDGKGNLAPQGSVPSAVSSLTDDLLKYYHQVTRAVLGDDPQLMKVALQDLQTNSKIGALLPYFVYVVSGVKSVSHDLEQLHRLLQVARSLFRNPHLCLGPYVRCLVGSVLYCVLEPLAASINPLNDHWTLRDGAALLLSHIFWTHGDLVSGLYQHILLSLQKILADPVRPLCCHYGAVVGLHALGWKAVERVLYPHLSTYWTNLQAVLDDYSVSNAQVKADGHKVYGAILVAVERLLKMKAQAAEPNRGGPGGRGCRRLDDLPWDSLLFQESSSGGGAEPSFGSGLPLPPGGAGPEDPSLSVTLADIYRELYAFFGDSLATRFGTGQPAPTAPRPPGDKKEPAAAPDSVRKMPQLTASAIVSPHGDESPRGSGGGGPASASGPAASESRPLPRVHRARGAPRQQGPGTGTRDVFQKSRFAPRGAPHFRFIIAGRQAGRRCRGRLFQTAFPAPYGPSPASRYVQKLPMIGRTSRPARRWALSDYSLYLPL [TAF6L] | 49.3 | 49.5 | -0.115 | 0.0555 | 0.603 | 1.02
MMSLSVRPQRRLLSARVNRSQSFAGVLGSHERGPSLSFRSFPVFSPPGPPRKPPALSRVSRMFSVAHPAAKVPQPERLDLVYTALKRGLTAYLEVHQQEQEKLQGQIRESKRNSRLGFLYDLDKQVKSIERFLRRLEFHASKIDELYEAYCVQRRLRDGAYNMVRAYTTGSPGSREARDSLAEATRGHREYTESMCLLESELEAQLGEFHLRMKGLAGFARLCVGDQYEICMKYGRQRWKLRGRIEGSGKQVWDSEETIFLPLLTEFLSIKVTELKGLANHVVVGSVSCETKDLFAALPQVVAVDINDLGTIKLSLEVTWSPFDKDDQPSAASSVNKASTVTKRFSTYSQSPPDTPSLREQAFYNMLRRQEELENGTAWSLSSESSDDSSSPQLSGTARHSPAPRPLVQQPEPLPIQVAFRRPETPSSGPLDEEGAVAPVLANGHAPYSRTLSHISEASVDAALAEASVEAVGPESLAWGPSPPTHPAPTHGEHPSPVPPALDPGHSATSSTLGTTGSVPTSTDPAPSAHLDSVHKSTDSGPSELPGPTHTTTGSTYSAITTTHSAPSPLTHTTTGSTHKPIISTLTTTGPTLNIIGPVQTTTSPTHTMPSPTHTTASPTHTSTSPTHTPTSPTHKTSMSPPTTTSPTPSGMGLVQTATSPTHPTTSPTHPTTSPILINVSPSTSLELATLSSPSKHSDPTLPGTDSLPCSPPVSNSYTQADPMAPRTPHPSPAHSSRKPLTSPAPDPSESTVQSLSPTPSPPTPAPQHSDLCLAMAVQTPVPTAAGGSGDRSLEEALGALMAALDDYRGQFPELQGLEQEVTRLESLLMQRQGLTRSRASSLSITVEHALESFSFLNEDEDEDNDVPGDRPPSSPEAGAEDSIDSPSARPLSTGCPALDAALVRHLYHCSRLLLKLGTFGPLRCQEAWALERLLREARVLEAVCEFSRRWEIPASSAQEVVQFSASRPGFLTFWDQCTERLSCFLCPVERVLLTFCNQYGARLSLRQPGLAEAVCVKFLEDALGQKLPRRPQPGPGEQLTVFQFWSFVETLDSPTMEAYVTETAEEVLLVRNLNSDDQAVVLKALRLAPEGRLRRDGLRALSSLLVHGNNKVMAAVSTQLRSLSLGPTFRERALLCFLDQLEDEDVQTRVAGCLALGCIKAPEGIEPLVYLCQTDTEAVREAARQSLQQCGEEGQSAHRRLEESLDALPRIFGPGSMASTAF [FAM65A] | 50.1 | 49.7 | -0.096 | 0.0594 | 0.236 | 1.49
MAATAREDGASGQERGQRGCEHYDRGCLLKAPCCDKLYTCRLCHDNNEDHQLDRFKVKEVQCINCEKIQHAQQTCEECSTLFGEYYCDICHLFDKDKKQYHCENCGICRIGPKEDFFHCLKCNLCLAMNLQGRHKCIENVSRQNCPICLEDIHTSRVVAHVLPCGHLLHRTCYEEMLKEGYRCPLCMHSALDMTRYWRQLDDEVAQTPMPSEYQNMTVDILCNDCNGRSTVQFHILGMKCKICESYNTAQAGGRRISLDQQ [RCHY1] | 51.2 | 52.3 | -0.374 | 0.146 | -0.0247 | 0.646
